B1: WASH complex subunit 3 (Homo sapiens), Q9Y3C0 (parent)
chain: MDEDGLPLMGSGIDLTKVPAIQQKRTVAFLNQFVVHTVQFLNRFSTVCEEKLADLSLRIQQIETTLNILDAKLSSIPGLDDVTVEVSPLNVTSVTNGAHPEATSEQPQQNSTQDSGLQESEVSAENILTVAKDPRYARYLKMVQVGVPVMAIRNKMISEGLDPDLLERPDAPVPDGESEKTVEESSDSESSFSD
B2: Keratin, type II cytoskeletal 6A (Homo sapiens), P02538 (parent)
chain: MASTSTTIRSHSSSRRGFSANSARLPGVSRSGFSSVSVSRSRGSGGLGGACGGAGFGSRSLYGLGGSKRISIGGGSCAISGGYGSRAGGSYGFGGAGSGFGFGGGAGIGFGLGGGAGLAGGFGGPGFPVCPPGGIQEVTVNQSLLTPLNLQIDPTIQRVRAEEREQIKTLNNKFASFIDKVRFLEQQNKVLETKWTLLQEQGTKTVRQNLEPLFEQYINNLRRQLDSIVGERGRLDSELRGMQDLVEDFKNKYEDEINKRTAAENEFVTLKKDVDAAYMNKVELQAKADTLTDEINFLRALYDAELSQMQTHISDTSVVLSMDNNRNLDLDSIIAEVKAQYEEIAQRSRAEAESWYQTKYEELQVTAGRHGDDLRNTKQEIAEINRMIQRLRSEIDHVKKQCANLQAAIADAEQRGEMALKDAKNKLEGLEDALQKAKQDLARLLKEYQELMNVKLALDVEIATYRKLLEGEECRLNGEGVGQVNISVVQSTVSSGYGGASGVGSGLGLGGGSSYSYGSGLGVGGGFSSSSGRAIGGGLSSVGGGSSTIKYTTTSSSSRKSYKH
partner: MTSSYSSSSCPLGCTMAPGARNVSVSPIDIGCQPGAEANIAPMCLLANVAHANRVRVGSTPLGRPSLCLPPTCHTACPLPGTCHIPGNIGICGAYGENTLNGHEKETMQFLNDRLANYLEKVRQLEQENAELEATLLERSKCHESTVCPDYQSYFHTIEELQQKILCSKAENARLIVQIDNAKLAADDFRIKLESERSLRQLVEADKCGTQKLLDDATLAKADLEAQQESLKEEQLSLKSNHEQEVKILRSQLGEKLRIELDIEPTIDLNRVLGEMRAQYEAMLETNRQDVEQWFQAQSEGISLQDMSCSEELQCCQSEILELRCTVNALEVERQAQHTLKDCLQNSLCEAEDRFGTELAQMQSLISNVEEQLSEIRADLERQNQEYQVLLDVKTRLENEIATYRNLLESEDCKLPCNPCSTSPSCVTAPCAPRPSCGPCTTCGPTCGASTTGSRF

Variants of B1 are the subject of the first experiment. As to conditions: with optn_human OPTN.
In the case of MDEDGLPLMGSGIDLTKVPAIQQKRTVAFLNQFVVHTVQFLNRLSTVCEEKLADLSLRIQQIETTLNILDAKLSSIPGLDDVTVEVSPLNVTSVTNGAHPEATSEQPQQNSTQDSGLQESEVSAENILTVAKDPRYARYLKMVQVGVPVMAIRNKMISEGLDPDLLERPDAPVPDGESEKTVEESSDSESSFSD [F44L], the “effect of a mutation on the interaction” value is listed as “with no effect”.

Another experiment covers variants of B1. As to conditions: with ift20_human IFT20, Q8IY31.
ift20_human IFT20, Q8IY31, sequence (Q8IY31 whole entry): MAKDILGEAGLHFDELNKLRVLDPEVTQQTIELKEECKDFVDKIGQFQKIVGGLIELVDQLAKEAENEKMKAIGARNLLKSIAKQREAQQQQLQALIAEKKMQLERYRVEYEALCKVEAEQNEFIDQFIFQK
On to MDEDGLPLMGSGIDLTKVPAIQQKRTVAFLNQFVVHTVQFLNRLSTVCEEKLADLSLRIQQIETTLNILDAKLSSIPGLDDVTVEVSPLNVTSVTNGAHPEATSEQPQQNSTQDSGLQESEVSAENILTVAKDPRYARYLKMVQVGVPVMAIRNKMISEGLDPDLLERPDAPVPDGESEKTVEESSDSESSFSD [F44L], for which the “effect of a mutation on the interaction” value is “with no effect”.

Variants of B1 are the subject of another experiment. As to conditions: with abi2_human ABI2, Q9NYB9.
abi2_human ABI2, Q9NYB9, sequence (Q9NYB9 whole entry): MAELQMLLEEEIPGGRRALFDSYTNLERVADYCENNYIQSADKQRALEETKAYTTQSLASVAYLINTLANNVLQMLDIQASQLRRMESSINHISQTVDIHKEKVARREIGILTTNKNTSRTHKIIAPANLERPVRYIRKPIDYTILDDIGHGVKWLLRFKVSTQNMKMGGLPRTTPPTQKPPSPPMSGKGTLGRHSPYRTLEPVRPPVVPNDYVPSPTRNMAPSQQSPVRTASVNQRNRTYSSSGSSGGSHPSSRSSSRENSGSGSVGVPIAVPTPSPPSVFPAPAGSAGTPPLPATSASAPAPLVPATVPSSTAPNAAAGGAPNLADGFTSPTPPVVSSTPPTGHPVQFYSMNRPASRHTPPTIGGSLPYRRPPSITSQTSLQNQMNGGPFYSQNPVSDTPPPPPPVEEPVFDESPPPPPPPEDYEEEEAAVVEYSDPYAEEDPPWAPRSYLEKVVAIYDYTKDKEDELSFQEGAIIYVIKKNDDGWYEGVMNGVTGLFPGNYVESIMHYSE
Turning to MDEDGLPLMGSGIDLTKVPAIQQKRTVAFLNQFVVHTVQFLNRLSTVCEEKLADLSLRIQQIETTLNILDAKLSSIPGLDDVTVEVSPLNVTSVTNGAHPEATSEQPQQNSTQDSGLQESEVSAENILTVAKDPRYARYLKMVQVGVPVMAIRNKMISEGLDPDLLERPDAPVPDGESEKTVEESSDSESSFSD [F44L], the “effect of a mutation on the interaction” value is “disrupting interaction strength”.

Variants of B1 are the subject of a further experiment. As to conditions: with ndc80_human NDC80, O14777.
ndc80_human NDC80, O14777, sequence (O14777 whole entry): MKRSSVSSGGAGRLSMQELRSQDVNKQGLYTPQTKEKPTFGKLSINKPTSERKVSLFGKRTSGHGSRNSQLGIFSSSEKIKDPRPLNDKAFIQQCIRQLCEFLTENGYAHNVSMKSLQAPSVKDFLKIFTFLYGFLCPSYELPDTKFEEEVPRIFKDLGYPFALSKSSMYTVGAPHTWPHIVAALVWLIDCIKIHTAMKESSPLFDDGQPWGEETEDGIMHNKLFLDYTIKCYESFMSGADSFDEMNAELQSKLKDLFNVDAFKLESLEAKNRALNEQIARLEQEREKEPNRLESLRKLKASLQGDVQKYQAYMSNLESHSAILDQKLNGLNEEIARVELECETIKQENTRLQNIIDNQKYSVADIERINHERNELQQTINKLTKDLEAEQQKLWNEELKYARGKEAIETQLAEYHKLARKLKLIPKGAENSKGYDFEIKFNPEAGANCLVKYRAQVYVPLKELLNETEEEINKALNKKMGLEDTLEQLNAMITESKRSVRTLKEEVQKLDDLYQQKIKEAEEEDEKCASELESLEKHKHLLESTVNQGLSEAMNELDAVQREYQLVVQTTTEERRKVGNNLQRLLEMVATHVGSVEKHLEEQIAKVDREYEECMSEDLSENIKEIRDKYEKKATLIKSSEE
Regarding MDEDGLPLMGSGIDLTKVPAIQQKRTVAFLNQFVVHTVQFLNRLSTVCEEKLADLSLRIQQIETTLNILDAKLSSIPGLDDVTVEVSPLNVTSVTNGAHPEATSEQPQQNSTQDSGLQESEVSAENILTVAKDPRYARYLKMVQVGVPVMAIRNKMISEGLDPDLLERPDAPVPDGESEKTVEESSDSESSFSD [F44L], the “effect of a mutation on the interaction” value was “with no effect”.

Variants of B1 are the subject of another experiment. To be noted: with pcm1_human PCM1, Q15154.
pcm1_human PCM1, Q15154, sequence (Q15154 whole entry): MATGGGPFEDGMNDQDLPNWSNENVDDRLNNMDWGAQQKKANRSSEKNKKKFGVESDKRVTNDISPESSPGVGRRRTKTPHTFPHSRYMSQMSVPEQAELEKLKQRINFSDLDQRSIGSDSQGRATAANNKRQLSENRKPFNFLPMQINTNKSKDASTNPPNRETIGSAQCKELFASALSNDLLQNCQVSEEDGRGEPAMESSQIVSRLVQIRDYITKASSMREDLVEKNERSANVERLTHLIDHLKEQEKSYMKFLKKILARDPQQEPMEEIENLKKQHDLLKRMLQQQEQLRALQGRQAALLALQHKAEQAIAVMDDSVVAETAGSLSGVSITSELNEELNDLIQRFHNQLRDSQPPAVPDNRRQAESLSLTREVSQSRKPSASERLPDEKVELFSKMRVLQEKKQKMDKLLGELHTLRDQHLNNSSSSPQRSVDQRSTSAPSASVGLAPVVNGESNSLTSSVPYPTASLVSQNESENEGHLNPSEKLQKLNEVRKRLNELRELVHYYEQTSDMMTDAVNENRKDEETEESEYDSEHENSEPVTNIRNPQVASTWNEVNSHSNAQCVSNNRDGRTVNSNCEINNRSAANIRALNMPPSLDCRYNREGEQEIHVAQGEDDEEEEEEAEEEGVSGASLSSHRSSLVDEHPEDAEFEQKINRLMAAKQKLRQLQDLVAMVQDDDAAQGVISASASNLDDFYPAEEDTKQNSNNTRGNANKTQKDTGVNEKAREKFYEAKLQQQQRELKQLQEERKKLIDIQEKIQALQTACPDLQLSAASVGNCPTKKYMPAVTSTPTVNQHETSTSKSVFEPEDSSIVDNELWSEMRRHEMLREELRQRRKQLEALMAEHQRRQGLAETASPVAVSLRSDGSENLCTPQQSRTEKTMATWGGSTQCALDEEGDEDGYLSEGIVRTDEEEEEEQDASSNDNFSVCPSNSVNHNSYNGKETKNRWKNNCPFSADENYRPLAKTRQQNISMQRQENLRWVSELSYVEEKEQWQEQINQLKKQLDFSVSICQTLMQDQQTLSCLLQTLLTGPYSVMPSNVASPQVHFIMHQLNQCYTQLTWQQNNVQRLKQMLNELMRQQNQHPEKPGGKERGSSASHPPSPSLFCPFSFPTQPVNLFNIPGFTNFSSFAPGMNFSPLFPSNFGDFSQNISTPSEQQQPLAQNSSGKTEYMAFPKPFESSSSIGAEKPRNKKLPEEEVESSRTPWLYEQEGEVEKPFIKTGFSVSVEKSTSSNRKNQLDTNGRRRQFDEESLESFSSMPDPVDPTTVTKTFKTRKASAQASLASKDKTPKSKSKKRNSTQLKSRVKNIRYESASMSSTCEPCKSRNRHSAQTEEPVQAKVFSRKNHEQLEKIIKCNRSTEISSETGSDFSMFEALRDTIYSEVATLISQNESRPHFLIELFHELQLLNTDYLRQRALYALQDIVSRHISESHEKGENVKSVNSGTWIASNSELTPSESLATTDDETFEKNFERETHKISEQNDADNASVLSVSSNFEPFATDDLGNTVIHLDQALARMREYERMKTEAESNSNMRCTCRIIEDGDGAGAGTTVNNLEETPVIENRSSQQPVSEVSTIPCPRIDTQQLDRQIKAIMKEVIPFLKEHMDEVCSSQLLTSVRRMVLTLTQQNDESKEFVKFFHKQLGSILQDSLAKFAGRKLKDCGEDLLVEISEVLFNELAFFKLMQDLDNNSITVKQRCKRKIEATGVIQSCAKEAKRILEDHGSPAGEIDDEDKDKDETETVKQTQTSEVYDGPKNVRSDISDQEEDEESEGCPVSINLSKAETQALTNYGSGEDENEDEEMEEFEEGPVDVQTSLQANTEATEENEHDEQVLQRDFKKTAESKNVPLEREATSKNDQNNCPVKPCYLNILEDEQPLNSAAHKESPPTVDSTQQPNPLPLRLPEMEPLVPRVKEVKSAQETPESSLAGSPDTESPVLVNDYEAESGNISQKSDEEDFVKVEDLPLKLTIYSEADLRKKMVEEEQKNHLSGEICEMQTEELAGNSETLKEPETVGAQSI
With MDEDGLPLMGSGIDLTKVPAIQQKRTVAFLNQFVVHTVQFLNRLSTVCEEKLADLSLRIQQIETTLNILDAKLSSIPGLDDVTVEVSPLNVTSVTNGAHPEATSEQPQQNSTQDSGLQESEVSAENILTVAKDPRYARYLKMVQVGVPVMAIRNKMISEGLDPDLLERPDAPVPDGESEKTVEESSDSESSFSD [F44L], the “effect of a mutation on the interaction” value is listed as “with no effect”.

The variants in the next experiment derive from B1. To be noted: with mcrs1_human MCRS1, Q96EZ8.
mcrs1_human MCRS1, Q96EZ8, sequence (Q96EZ8 whole entry): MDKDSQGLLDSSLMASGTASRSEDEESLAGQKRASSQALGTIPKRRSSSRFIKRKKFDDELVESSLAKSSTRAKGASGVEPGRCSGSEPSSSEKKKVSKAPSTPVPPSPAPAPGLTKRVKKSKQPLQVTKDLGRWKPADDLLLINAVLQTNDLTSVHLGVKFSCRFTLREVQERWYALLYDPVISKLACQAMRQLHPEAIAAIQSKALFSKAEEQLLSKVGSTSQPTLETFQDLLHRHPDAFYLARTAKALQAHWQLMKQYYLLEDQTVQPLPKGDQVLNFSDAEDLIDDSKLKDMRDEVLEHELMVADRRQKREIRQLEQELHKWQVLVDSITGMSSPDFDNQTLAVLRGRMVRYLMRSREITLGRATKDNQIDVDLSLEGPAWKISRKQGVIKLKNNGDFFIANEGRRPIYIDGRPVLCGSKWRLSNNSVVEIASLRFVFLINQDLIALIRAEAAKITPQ
On to MDEDGLPLMGSGIDLTKVPAIQQKRTVAFLNQFVVHTVQFLNRLSTVCEEKLADLSLRIQQIETTLNILDAKLSSIPGLDDVTVEVSPLNVTSVTNGAHPEATSEQPQQNSTQDSGLQESEVSAENILTVAKDPRYARYLKMVQVGVPVMAIRNKMISEGLDPDLLERPDAPVPDGESEKTVEESSDSESSFSD [F44L], for which the “effect of a mutation on the interaction” value is given as “with no effect”.

A further experiment covers variants of B1. To be noted: with txlna_human TXLNA.
In the case of MDEDGLPLMGSGIDLTKVPAIQQKRTVAFLNQFVVHTVQFLNRLSTVCEEKLADLSLRIQQIETTLNILDAKLSSIPGLDDVTVEVSPLNVTSVTNGAHPEATSEQPQQNSTQDSGLQESEVSAENILTVAKDPRYARYLKMVQVGVPVMAIRNKMISEGLDPDLLERPDAPVPDGESEKTVEESSDSESSFSD [F44L], the “effect of a mutation on the interaction” value is on record as “with no effect”.

In another experiment the parent is B2. As to conditions: with krt38_human KRT38, O76015.
With MASTSTTIRSHSSSRRGFSANSARLPGVSRSGFSSVSVSRSRGSGGLGGACGGAGFGSRSLYGLGGSKRISIGGGSCAISGGYGSRAGGSYGFGGAGSGFGFGGGAGIGFGLGGGAGLAGGFGGPGFPVCPPGGIQEVTVNQSLLTPLNLQIDSTIQRVRAEEREQIKTLNNKFASFIDKVRFLEQQNKVLETKWTLLQEQGTKTVRQNLEPLFEQYINNLRRQLDSIVGERGRLDSELRGMQDLVEDFKNKYEDEINKRTAAENEFVTLKKDVDAAYMNKVELQAKADTLTDEINFLRALYDAELSQMQTHISDTSVVLSMDNNRNLDLDSIIAEVKAQYEEIAQRSRAEAESWYQTKYEELQVTAGRHGDDLRNTKQEIAEINRMIQRLRSEIDHVKKQCANLQAAIADAEQRGEMALKDAKNKLEGLEDALQKAKQDLARLLKEYQELMNVKLALDVEIATYRKLLEGEECRLNGEGVGQVNISVVQSTVSSGYGGASGVGSGLGLGGGSSYSYGSGLGVGGGFSSSSGRAIGGGLSSVGGGSSTIKYTTTSSSSRKSYKH [P154S], the “effect of a mutation on the interaction” value was “with no effect”.

Source of the values: IntAct's records for PubMed 31515488.
